Biological target: Pcc1–Kae1 binary complex from Pyrococcus abyssi (Pyrococcus abyssi (strain GE5 / …, UniProt Q9V1Z9,Q9UXT7))
Assay: gel filtration

Sequence of Pcc1–Kae1 binary complex from Pyrococcus abyssi (Pyrococcus abyssi (Q9V1Z9 whole entry, chain 1 of 2): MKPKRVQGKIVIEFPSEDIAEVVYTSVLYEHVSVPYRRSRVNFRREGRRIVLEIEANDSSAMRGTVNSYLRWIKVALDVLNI
Sequence of Pcc1–Kae1 binary complex from Pyrococcus abyssi (Pyrococcus abyssi (Q9UXT7 whole entry, chain 2 of 2): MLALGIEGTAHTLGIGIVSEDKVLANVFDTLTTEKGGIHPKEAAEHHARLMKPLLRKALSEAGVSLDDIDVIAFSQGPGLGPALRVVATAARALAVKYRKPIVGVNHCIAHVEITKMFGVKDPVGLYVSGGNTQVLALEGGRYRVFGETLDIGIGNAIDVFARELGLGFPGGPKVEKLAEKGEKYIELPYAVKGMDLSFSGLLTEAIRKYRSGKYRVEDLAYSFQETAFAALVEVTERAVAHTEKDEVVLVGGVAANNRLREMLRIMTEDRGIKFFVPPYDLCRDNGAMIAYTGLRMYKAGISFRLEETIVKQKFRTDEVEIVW

B1: Bud32–Cgi121 binary complex from Pyrococcus abyssi (protein)
chain 1: MKLIKQGAEAKIYLAEFSELYFDYPIKVIVKERIKKRYRIPEIDLKLRKERTIREARILRRAKEFGVNVPYVFEVDTKNMIIVMEYIEGERLKELLEKLPMEERLKVCREVGRQIGKLHEAGIVHGDLTTSNMILREGKVYFIDFGLAEFDDTIEAQGVDLHLLKRAMESTHYKWFERGFEEVLKGYIEIRGEDKGREIREKIREIELRGRYRERSWITQ
chain 2: MTPKFKNFKHDNSGQVETYLFEVISKYTMLEIKTKFGKLCIAKVKLASESIERALNLCNDNCQIVSAKCHEEVIFATILAIKAFSSGRNTAKTIKGEILLRLAGVKQIKDAIKIIGARKGENLIIYFGVSDPCSSLKDFISSLGLREEPLKPCDEDEVKRGFERAAIIEAL
- binding result: binds

From publication PMC3814370 (2013)
